{"source": "paper PMC11804915", "about": "“Single-stranded DNA binding to the transcription factor PafBC triggers the mycobacterial DNA damage response”", "conditions_in_all_cases": "protein: recombinant; tags: C-terminal Strep on PafC; copies: 1;1; label: FAM; single strand", "key": {"PafBC, PafB WYL variant": {"molecular_target": "T1, PafBC, PafB WYL variant (Mycobacterium smegmatis, UniProt A4ZHT0;A0QZ41 1-331;1-318, R214A;PafB:R211A)", "T1 sequence 1": "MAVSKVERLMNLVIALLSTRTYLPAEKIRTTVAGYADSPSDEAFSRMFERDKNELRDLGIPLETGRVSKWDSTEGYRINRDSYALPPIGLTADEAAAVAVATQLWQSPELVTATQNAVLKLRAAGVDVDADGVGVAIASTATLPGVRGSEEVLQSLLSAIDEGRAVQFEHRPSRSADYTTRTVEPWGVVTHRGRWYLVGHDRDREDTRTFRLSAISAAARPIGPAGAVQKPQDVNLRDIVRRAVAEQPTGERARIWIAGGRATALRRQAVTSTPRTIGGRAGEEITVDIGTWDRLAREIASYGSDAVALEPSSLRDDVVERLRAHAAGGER", "T1 sequence 2": "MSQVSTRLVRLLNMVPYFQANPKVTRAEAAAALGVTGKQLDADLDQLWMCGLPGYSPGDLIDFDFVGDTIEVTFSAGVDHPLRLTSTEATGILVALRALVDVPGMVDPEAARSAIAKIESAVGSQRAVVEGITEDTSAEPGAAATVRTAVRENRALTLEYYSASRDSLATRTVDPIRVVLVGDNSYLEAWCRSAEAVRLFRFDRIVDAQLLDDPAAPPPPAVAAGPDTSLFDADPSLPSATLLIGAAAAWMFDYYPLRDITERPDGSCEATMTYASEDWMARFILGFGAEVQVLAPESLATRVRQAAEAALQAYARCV", "assay": "EMSA; up to 16 uM; ssDNA EMSA: 22.5 mM Hepes-KOH pH 7.8, 135 mM NaCl, 20 mM KCl, 5 mM MgCl2, 1 mM DTT, 37 C 15 min, 10 nM DNA, 0-16 uM PafBC; RNAP EMSA: 20 mM Hepes-NaOH pH 8, 100 mM K-acetate, 36 mM NaCl, 10 mM MgCl2, 2 mM DTT, 37 C 30 min"}, "PafBC, PafB Y196A": {"molecular_target": "T2, PafBC, PafB Y196A (Mycobacterium smegmatis, UniProt A4ZHT0;A0QZ41 1-331;1-318, Y196A)", "T2 sequence 1": "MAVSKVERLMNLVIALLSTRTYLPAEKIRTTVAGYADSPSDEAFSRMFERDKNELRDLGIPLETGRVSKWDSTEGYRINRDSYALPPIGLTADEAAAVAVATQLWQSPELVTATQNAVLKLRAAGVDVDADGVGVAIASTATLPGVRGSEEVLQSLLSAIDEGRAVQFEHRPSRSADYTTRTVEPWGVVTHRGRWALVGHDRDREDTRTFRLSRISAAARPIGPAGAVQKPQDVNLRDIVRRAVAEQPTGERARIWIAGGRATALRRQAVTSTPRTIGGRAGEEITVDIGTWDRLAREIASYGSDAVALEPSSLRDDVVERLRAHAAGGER", "T2 sequence 2": "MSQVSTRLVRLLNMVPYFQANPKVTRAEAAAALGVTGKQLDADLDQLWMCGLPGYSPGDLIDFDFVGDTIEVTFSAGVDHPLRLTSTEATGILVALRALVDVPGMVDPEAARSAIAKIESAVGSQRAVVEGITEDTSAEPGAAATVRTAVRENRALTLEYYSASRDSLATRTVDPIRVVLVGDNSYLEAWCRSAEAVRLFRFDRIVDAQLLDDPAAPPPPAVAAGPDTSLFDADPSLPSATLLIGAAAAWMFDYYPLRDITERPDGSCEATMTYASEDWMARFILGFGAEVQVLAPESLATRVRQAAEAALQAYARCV", "assay": "EMSA; up to 16 uM; ssDNA EMSA: 22.5 mM Hepes-KOH pH 7.8, 135 mM NaCl, 20 mM KCl, 5 mM MgCl2, 1 mM DTT, 37 C 15 min, 10 nM DNA, 0-16 uM PafBC; RNAP EMSA: 20 mM Hepes-NaOH pH 8, 100 mM K-acetate, 36 mM NaCl, 10 mM MgCl2, 2 mM DTT, 37 C 30 min"}, "[1]": {"molecular_target": "T3, PafBC, PafB R181A/R204A/R208A (Mycobacterium smegmatis, UniProt A4ZHT0;A0QZ41 1-331;1-318, R204A;R208A;PafB:R181A)", "T3 sequence 1": "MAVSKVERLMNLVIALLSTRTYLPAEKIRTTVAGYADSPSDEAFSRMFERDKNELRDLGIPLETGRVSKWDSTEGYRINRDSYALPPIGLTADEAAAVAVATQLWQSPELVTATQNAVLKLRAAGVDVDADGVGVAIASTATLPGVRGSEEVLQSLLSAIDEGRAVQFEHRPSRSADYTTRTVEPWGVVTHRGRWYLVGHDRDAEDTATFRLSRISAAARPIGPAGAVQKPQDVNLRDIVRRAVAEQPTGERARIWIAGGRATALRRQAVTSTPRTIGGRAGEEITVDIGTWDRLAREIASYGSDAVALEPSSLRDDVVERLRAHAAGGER", "T3 sequence 2": "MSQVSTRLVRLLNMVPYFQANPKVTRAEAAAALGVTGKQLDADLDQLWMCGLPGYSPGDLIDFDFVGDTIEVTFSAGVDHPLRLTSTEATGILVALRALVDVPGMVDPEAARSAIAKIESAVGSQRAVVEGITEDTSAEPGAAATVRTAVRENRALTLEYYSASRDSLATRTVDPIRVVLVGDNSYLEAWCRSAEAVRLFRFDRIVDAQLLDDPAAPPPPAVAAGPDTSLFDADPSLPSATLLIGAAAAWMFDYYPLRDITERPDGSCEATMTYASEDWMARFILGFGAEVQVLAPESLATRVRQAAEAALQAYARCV", "assay": "EMSA; up to 16 uM; ssDNA EMSA: 22.5 mM Hepes-KOH pH 7.8, 135 mM NaCl, 20 mM KCl, 5 mM MgCl2, 1 mM DTT, 37 C 15 min, 10 nM DNA, 0-16 uM PafBC; RNAP EMSA: 20 mM Hepes-NaOH pH 8, 100 mM K-acetate, 36 mM NaCl, 10 mM MgCl2, 2 mM DTT, 37 C 30 min"}, "PafBC, PafC WYL variant": {"molecular_target": "T4, PafBC, PafC WYL variant (Mycobacterium smegmatis, UniProt A4ZHT0;A0QZ41 1-331;1-318, R201A;R204A)", "T4 sequence 1": "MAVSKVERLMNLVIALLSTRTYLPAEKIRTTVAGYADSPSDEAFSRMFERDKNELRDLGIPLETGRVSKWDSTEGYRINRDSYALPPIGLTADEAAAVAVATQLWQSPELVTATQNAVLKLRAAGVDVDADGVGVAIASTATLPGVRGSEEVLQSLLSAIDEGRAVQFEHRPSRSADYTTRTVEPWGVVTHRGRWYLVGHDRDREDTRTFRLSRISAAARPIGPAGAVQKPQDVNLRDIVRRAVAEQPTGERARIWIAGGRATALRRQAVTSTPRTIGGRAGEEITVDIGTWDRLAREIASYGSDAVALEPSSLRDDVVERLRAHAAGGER", "T4 sequence 2": "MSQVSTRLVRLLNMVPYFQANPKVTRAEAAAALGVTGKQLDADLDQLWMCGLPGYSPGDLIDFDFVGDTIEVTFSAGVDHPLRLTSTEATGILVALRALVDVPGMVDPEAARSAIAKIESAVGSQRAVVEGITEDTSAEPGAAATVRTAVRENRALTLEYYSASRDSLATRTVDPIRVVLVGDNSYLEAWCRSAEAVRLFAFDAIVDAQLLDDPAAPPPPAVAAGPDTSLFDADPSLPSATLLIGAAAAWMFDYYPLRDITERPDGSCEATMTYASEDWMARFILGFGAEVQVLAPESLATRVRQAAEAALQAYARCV", "assay": "EMSA; affinity comparable to WT; ssDNA EMSA: 22.5 mM Hepes-KOH pH 7.8, 135 mM NaCl, 20 mM KCl, 5 mM MgCl2, 1 mM DTT, 37 C 15 min, 10 nM DNA, 0-16 uM PafBC; RNAP EMSA: 20 mM Hepes-NaOH pH 8, 100 mM K-acetate, 36 mM NaCl, 10 mM MgCl2, 2 mM DTT, 37 C 30 min"}}}
{"binder": "TTTTTTTTTTTTTTTTTTTT (ssDNA)", "note": "[dT20 ssDNA]", "values": [{"measurement": "binding result", "setting": "PafBC, PafB WYL variant", "result": "no binding"}, {"measurement": "binding result", "setting": "PafBC, PafB Y196A", "result": "no binding"}, {"measurement": "binding result", "setting": "[1]", "result": "no binding"}, {"measurement": "binding result", "setting": "PafBC, PafC WYL variant", "result": "binds"}]}
